First the molecules themselves.
B1: AHP30826 (antibody, V domains shown)
VH: QVQLQQSGGGSVQAGGSLRLSCAASGTILSINAMGWYRQAPGKQRELVATITTGGNANYAHSVKGRFTISRDNAKNTVYLQMNNLKPEDTAVYYCNAEQVVVGFLQAYDVWGQGTTVTVSS
VL: DVVMTQSPLSLPVTLGQAASISCRSSQSLVHGDGNTYLNWIQQRPGQSPRRLIYKVSNRDSGVPDRFSGSGSGTDFTLKISRVEAEDVGVYYCMQGTHWPSTFGPGTKVDIK
B2: AHP29153 (antibody, V domains shown)
VH: QLQQVESGGGLVQPGGSLRLSCAASRNIGILSTMGWYRQAPGKQRELVATITRGGSTNYGEFVKGRFTISRDNAKNTVYLQMNSLKPEDTAVYYCNVDESWLGTQSYWGRGTTVTVSS
VL: QSVLTQPASVSGSPGQSITISCTGTSSDVGGYKYVSWYQQPPGKAPKLIIYEVTKRPSGVPDRFSGSKSGNTASLTVSGLQAEDEADYYCLSYAGSNNVFGTGTKLTVL
B3: AHP32982 (antibody, V domains shown)
VH: QVQLVQSGGGLVQPGGSLRLSCAASRNIGILSTMGWYRQAPGKQRELVATITRGGSTNYGEFVKGRFTISRDNAKNTVYLQMNSLKPEDTAVYYCNVDESWLGTQSYWGRGPLVTVSS
VL: DIVMTQSPSSVSASVGDRVTITCRASQGISSWLAWYQQKPGKAPKLLIYAASSLQSGVPSRFSGSGSGTDFTLTISSLQPEDFATYYCQQANSFPLTFGGGTKVEIK
B4: AHP31548 (antibody, V domains shown)
VH: QVQLMQSGGGLVQPGGSLRLSCAASRNIGILSTMGWYRQAPGKQRELVATITRGGSTNYGEFVKGRFTISRDNAKNTVYLQMNSLKPEDTAVYYCNVDESWLGTQSYWGRGTTVTVSS
VL: QSALTQPPSASGSPGQSVTISCTGTSSDIGTYNFVSWYQQHPGKAPKLIIYEVSKRPSGVPDRFSGSKSGNTASLTVSGLQAEDEADYYCKSYPRVFGTGTKLTAL
B5: AHP32913 (antibody, V domains shown)
VH: QVQLMQSGGGLVQPGGSLRLSCAASRNIGILSTMGWYRQAPGKQRELVATITRGGSTNYGEFVKGRFTISRDNAKNTVYLQMNSLKPEDTAVYYCNVDESWLGTQSYWGRGTQVTVSS
VL: QAVVTQEPSLTVSPGGTVTLTCGSSTGPVTSGHYPHWYQQKPGQAPKTLIFDTSHKHPWTPAQFSGSLLGGKAALTLSGAHPEDEAEYYCLLSYSGVRVFGGGTQLIIL
B6: AHP32919 (antibody, V domains shown)
VH: QVQLQESGGGVVQPGGSLRLSCAASQSIGLLSTMGWYRQAAGKQRELVATITRGGSTNYGEFVKGRFTISRDNAKNTVYLQMNSLKPEDTAVYYCTADESWLGTQSYWGRGTRVTVSS
VL: QAGLTQPPSASGTPGQGVTISCSGSSSNIGSNSVNWYQQLPGTAPKLLMHSNNERSSGVPDRFSGSKSGSSASLAISGLQSEDAADYFCGAWDDSLNGYVFGTGTKLTVL

In the test the target is murine Claudin 18.2 expressed on HEK293 cells (murine) (UniProt P56857). Description: flow cytometry on HEK293 cells expressing murine Claudin 18.2. Background: Flow cytometry measures light scatter and fluorescence of single cells or particles in a stream.
Sequence of murine Claudin 18.2 expressed on HEK293 cells (murine) (P56857 whole entry): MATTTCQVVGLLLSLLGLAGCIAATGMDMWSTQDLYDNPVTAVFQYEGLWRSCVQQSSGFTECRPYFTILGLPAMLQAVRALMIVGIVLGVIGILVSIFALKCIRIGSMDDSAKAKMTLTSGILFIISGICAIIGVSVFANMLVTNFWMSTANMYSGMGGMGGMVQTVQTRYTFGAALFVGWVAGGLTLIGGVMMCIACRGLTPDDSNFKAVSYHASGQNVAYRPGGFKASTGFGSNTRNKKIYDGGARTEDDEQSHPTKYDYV
What is called EC50 is the concentration needed to bring the measured effect to its halfway point. A lower EC50 goes with greater potency. Molecule B1 had a half-maximal effective concentration (EC50) of 3.44 nM.

For the molecule B2, the EC50 turned out to be 4.45 nM.

As for B3, the EC50 turned out to be 4.03 nM.

Molecule B4 registered an EC50 of 1.67 nM.

Molecule B5 showed an EC50 of 0.728 nM.

The molecule B6 came in with a concentration for a half-maximal effect (EC50) of 0.772 nM.
